Assay results: US20180057581A1 (MorphoSys, published 2018)

T1: human M-CSF (human, UniProt P09603 33-255, limits assumed)
T1 construct: also called M-CSF (human); CSF-1
T1 sequence: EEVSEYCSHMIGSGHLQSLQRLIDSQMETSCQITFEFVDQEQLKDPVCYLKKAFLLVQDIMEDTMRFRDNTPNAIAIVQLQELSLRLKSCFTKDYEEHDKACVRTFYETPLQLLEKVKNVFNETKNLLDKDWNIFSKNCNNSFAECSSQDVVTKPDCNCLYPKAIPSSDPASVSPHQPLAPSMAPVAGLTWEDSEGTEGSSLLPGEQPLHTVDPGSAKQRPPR

T2: Recombinant cynomolgus monkey sgM-CSF (cynomolgus (Macaca fascicularis), UniProt P09603 33-255 (human entry), limits assumed)
T2 construct: used also where only 'cynomolgus M-CSF' is printed (ELISA result, SET); also called cynomolgus sgM-CSF; cyno sgM-CSF
T2 chain: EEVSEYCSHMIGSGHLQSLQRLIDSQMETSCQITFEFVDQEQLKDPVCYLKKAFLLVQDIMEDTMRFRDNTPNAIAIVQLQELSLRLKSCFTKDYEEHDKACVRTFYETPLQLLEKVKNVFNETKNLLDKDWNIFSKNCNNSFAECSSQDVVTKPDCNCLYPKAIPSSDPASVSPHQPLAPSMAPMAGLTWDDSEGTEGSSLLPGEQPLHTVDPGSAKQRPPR

T3: Recombinant human sgM-CSF (human, UniProt P09603 33-255)
T3 sequence: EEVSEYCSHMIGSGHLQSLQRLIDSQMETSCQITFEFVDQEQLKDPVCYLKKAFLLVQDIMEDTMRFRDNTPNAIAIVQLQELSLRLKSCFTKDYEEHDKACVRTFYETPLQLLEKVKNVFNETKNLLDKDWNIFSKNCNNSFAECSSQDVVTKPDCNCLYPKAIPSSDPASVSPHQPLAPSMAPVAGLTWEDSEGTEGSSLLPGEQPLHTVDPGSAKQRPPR


Key:
human M-CSF [1] = target: T1, human M-CSF; assay: soluble equilibrium titration (SET), Fab, monovalent
Description: (§1) The monovalent affinity of the antibodies of the present disclosure was determined by soluble equilibrium titration (Haenel et al. (2005) Anal Biochem 339, 182-4).

[2] = target: T2, Recombinant cynomolgus monkey sgM-CSF; assay: as above
Description: as §1

[3] = target: T3, Recombinant human sgM-CSF; assay: cell-based or functional assay
[4] = target: T2, Recombinant cynomolgus monkey sgM-CSF; assay: cell-based or functional assay
[5] = target: T2, Recombinant cynomolgus monkey sgM-CSF; assay: Receptor binding assay, inhibition of cynomolgus M-CSF binding to M-CSF receptor (competitor CSF1-R-Fc); Table 12 summary
Description: Complexes were then transferred to 384 well MSD plates coated with 2 μg/ml of the corresponding receptor. Plates were then washed and incubated with the streptavidin/ECL conjugate for 2 h with shaking at room temperature. 35 μl MSD read buffer T with surfactant was then added per well and subsequently measured using MSD Sector Imager 6000.

human M-CSF [6] = target: T1, human M-CSF; assay: ELISA
Description: (§2) BSA was used as a negative control substrate.
(§3) After blocking of plates with 5% skim milk powder in PBS, Fab-containing E. coli lysates, IgG-containing cell culture supernatants or purified IgG or Fab proteins were added. Binding of Fabs or IgGs was detected by F(ab)₂ specific goat anti-human IgG conjugated to alkaline phosphatase (Dianova Cat# 109-055-097; diluted 1:5000) using Attophos fluorescence substrate (Roche, #11681982001). Fluorescence emission at 535 nm was recorded with excitation at 430 nm.

[7] = target: T2, Recombinant cynomolgus monkey sgM-CSF; assay: ELISA
Description: as §2, §3

[8] = target: T3, Recombinant human sgM-CSF; assay: Table 12 summary, criterion Binding, Human M-CSF; assay and antibody format not named there
Description: as §1

[9] = target: T3, Recombinant human sgM-CSF; assay: Receptor binding assay, inhibition of human M-CSF binding to M-CSF receptor (competitor CSF1-R-Fc); Table 12 summary
GM-CSF = GM-CSF (Homo sapiens (Human), UniProt P04141 18-144); assay: not described (Table 12, criterion Binding)
Sequence of GM-CSF (P04141 18-144 limits assumed): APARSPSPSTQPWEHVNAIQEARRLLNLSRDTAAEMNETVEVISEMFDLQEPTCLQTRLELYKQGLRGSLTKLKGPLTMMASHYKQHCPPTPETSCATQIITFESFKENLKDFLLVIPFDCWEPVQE

Row | Binder | Kd (human M-CSF [1]) | Kd [2] | Cell viability assay (IC50), Human M-CSF [3] | Cell viability assay (IC50), Cynomolgus M-CSF [4] | IC50 [5] | ELISA fluorescence units (human M-CSF [6]) | ELISA fluorescence units [7] | Kd [8] | IC50 [9] | binding result (GM-CSF)
1 | Camille, Fab (Fab, V domains shown) VH: QVQLQQSGPGLVKPSQTLSLTCAISGESVSTSSAAWNWIRQSPSRGLEWLGRTYYRSKWKHEYAVSVKSRITINPDTSKNQFSLQLNSVTPEDTAVYYCARDRYYYSAFDYWGQGTLVTVSS VL: QSALTQPASVSGSPGQSITISCTGTSSDVGGYNSVSWYQQHPGKAPKLLIYAVSNRPSGVSNRFSGSKSGNTASLTISGLQAEDEADYYCASYDERFTRVFGGGTKLTVLG | 0.018 nM | 0.025 nM | – | – | – | – | – | – | – | –
2 | Madeleine, Fab (Fab, V domains shown) VH: QVQLQQSGPGLVKPSQTLSLTCAISGDSVSSNSAAWNWIRQSPSRGLEWLGRTYYRSKWKKEYAQSVKSRITINPDTSKNQFSLQLNSVTPEDTAVYYCARDRYYYSAFDYWGQGTLVTVSS VL: QSALTQPASVSGSPGQSITISCTGTSSDVGGYNSVSWYQQHPGKAPKLMIYAVSNRPSGVSNRFSGSKSGNTASLTISGLQAEDEADYYCASYDERFTRVFGGGTKLTVLG | 0.028 nM | 0.03 nM | – | – | – | – | – | – | – | –
3 | Laurine, Fab (Fab, V domains shown) VH: QVQLQQSGPGLVKPSQTLSLTCAISGDSVSSNSAAWNWIRQSPSRGLEWLGRTYYRSKWKKEYAQSVKSRITINPDTSKNQFSLQLNSVTPEDTAVYYCARDRYYYSAFDYWGQGTLVTVSS VL: DIALTQPASVSGSPGQSITISCTGTSSDVGGYNSVSWYQQHPGKAPKLMIYAVSNRPSGVSNRFSGSKSGNTASLTISGLQAEDEADYYCASYDERFTRVFGGGTKLTVLG | 0.096 nM | 0.15 nM | – | – | – | – | – | – | – | –
4 | Maelle, Fab (Fab, V domains shown) VH: QVQLQQSGPGLVKPSQTLSLTCAISGESVSTSSAAWNWIRQSPSRGLEWLGRTYYRSKWKKEYAQSVKSRITINPDTSKNQFSLQLNSVTPEDTAVYYCARDRYYYSAFDYWGQGTLVTVSS VL: QSALTQPASVSGSPGQSITISCTGTSSDVGGYNSVSWYQQHPGKAPKLIIYAVSNRPSGVSNRFSGSKSGNTASLTISGLQAEDEADYYCASYDERFTRVFGGGTKLTVLG | 0.013 nM | 0.027 nM | – | – | – | – | – | – | – | –
5 | Meriem, Fab (Fab, V domains shown) VH: QVQLQQSGPGLVKPSQTLSLTCAISGDSVSTSSAAWNWIRQSPSRGLEWLGRTYYRSKWKKEYAQSVKSRITINPDTSKNQFSLQLNSVTPEDTAVYYCARDRYYYSAFDYWGQGTLVTVSS VL: QSALTQPASVSGSPGQSITISCTGTSSDVGGYNSVSWYQQHPGKAPKLIIYAVSNRPSGVSNRFSGSKSGNTASLTISGLQAEDEADYYCASYDERFTRVFGGGTKLTVLG | 0.011 nM | 0.013 nM | – | – | – | – | – | – | – | –
6 | 8.10.3F (format not stated) (antibody, V domains shown, Prior art antibody; also called 8.10.F3) VH: EVQLVESGGGLVQPGGSLRLSCAASGFTFSSFSMTWVRQAPGKGLEWVSYISSRSSTISYADSVKGRFTISRDNAKNSLYLQMNSLRDEDTAVYYCARDPLLAGATFFDYWGQGTLVTVSS VL: not shown | – | – | 0.071 nM | 0.085 nM | 0.021 nM | > 35000 units | > 35000 units | 0.038 nM | 0.031 nM | no binding
7 | Romaine, Fab (Fab, V domains shown) VH: EVQLVESGGGLVKPGGSLRLSCAASGFTFSIYAMSWVRQAPGKGLEWVGRIKSNADGGTTEYAAPVKGRFTISRDDSKNTLYLQMNSLKTEDTAVYYCARMRYYSDLYFDPWGQGTLVTVSS VL: DIELTQPPSVSVSPGQTASITCSGDAIGSKYVHWYQQKPGQAPVLVISKDNKRPSGIPERFSGSNSGNTATLTISGTQAEDEADYYCQTATVSSYWWVFGGGTKLTVLG | 0.013 nM | 0.007 nM | – | – | – | – | – | – | – | –
8 | HeRX1-10G1 (format not stated) (antibody, V domains shown, Prior art antibody) VH: QVQLQESGPGLVKPSQTLSLTCTVSDYSITSDYAWNWIRQFPGKGLEWMGYISYSGSTSYNPSLKSRITISRDTSKNQFSLQLNSVTAADTAVYYCASFDYAHAMDYWGQGTTVTVSS VL: DIVLTQSPAFLSVTPGEKVTFTCQASQSIGTSIHWYQQKTDQAPKLLIKYASESISGIPSRFSGSGSGTDFTLTISSVEAEDAADYYCQQINSWPTTFGGGTKLEIKR | – | – | 0.004 nM | 0.004 nM | 0.028 nM | > 35000 units | > 35000 units | > 1 nM | 0.027 nM | no binding
